# Source: patent US10682427B2, “Intra-operative imaging” (BRACCO IMAGING S.P.A., priority 2014, dated 2020)
# pKd: −log10 of the molar value. Values joined by “and” are separate entries in the source; they are usually repeats but may differ in a detail not shown here. Equal entries are not always repeated. Where two headings read alike, the source gives them in different places.
# Columns and labels:
# [1] = Determination of the molar extinction coefficient (UV-VIS absorbance, linear regression); type: physicochemical; conditions: in PBS
# Protocol: Two standard stock solutions containing the NIR agent in PBS at 1000 μM (sol I: 1.27 mg, 0.884 mL) and 1250 μM (sol II: 7.03 mg, 3.915 mL) were prepared. Diluted standard solutions were then prepared as reported in Table A by diluting the stock solutions in an appropriate volumetric flask using PBS. The absorbance of each standard diluted solution was measured without any further dilution.
# The absorbance of each diluted standard solutions was measured and the molar extinction coefficient of DA364 was calculated from the slope of the linear regression reported in FIG. 1. The measured extinction coefficient in this condition was 208500 M^−1·cm^−1 (corresponding to 83% of the theoretical value reported for Cy5.5 dye: 250000 M^−1·cm^−1).
# [2] = Fluorescence quantum yield with integrating sphere; type: physicochemical; conditions: excitation 625 nm, 15 min at RT
# Protocol: Fluorescence quantum yields (0%) measurements were performed on FluoroLog-31IHR-320 (HORIBA-JobinYvon) with integrating sphere accessory.
# The measurements were carried out using an excitation wavelength of 625 nm and using a 450W Xenon Light Source. Detection was performed on TBX-04 detector from 645 to 850 nm (excitation and emission slit were 1.8 nm).
# The fluorescence quantum yield of DA364 solution was measured both in human serum SERONORM (human-based control serum), NycomedPhama, batch 1109514) and in Phosphate Buffer Saline (PBS).
# Solutions of the NIR agent were prepared in PBS and in human serum with absorbance lower than 0.1. Fluorescence (0%) measurements were carried out after incubation of the NIR agent at Room Temperature (RT) for 15 min.
# [3] = Plasma kinetic after single intravenous administration (HPLC with fluorimetric detector); type: in vivo, CD-1(ICR)BR mice; conditions: mice; for plasma concentration (mean from a triplicate result): LOD=0.0012 nmol/mL; for clearance: read-out: total plasma clearance; for Vd: read-out: volume distribution at steady state (Vdss)
# Protocol: The plasma kinetic of the NIRF probe DA364 was evaluated after a single intravenous administration in CD-1(ICR)BR mice.
# The fluorescent probe is administered at dose of 0.4 μmol/kg, corresponding to about 10 times the effective dose used in imaging studies (1 nmol/mouse, considering an average mouse body weight of 25 g). Animals were sacrificed at different time points up to and including 14 days after treatment and blood samples were collected for the determination of DA364 content, performed by using an HPLC method coupled with a fluorimetric detector.
# The NIR agent DA364, pre-warmed at room temperature, was intravenously injected at a dose of 0.4 μmol/kg, via tail vein, at an injection rate of 1 mL/min with a Harvard infusion pump. The administered dose corresponds to about 10 times the effective dose used in imaging studies. The intravenous administration route was chosen as possible route of exposure for humans.
# Animals (three for each time point) were sacrificed before and 5 min, 10 min, 20 min, 30 min, 60 min, 4 h, 24 h, 48 h, 7 days and 14 days after DA364.
# The day of sacrifice animals were anesthetized with sevoflurane, at an expiratory concentration of 3-4% in induction and 2-3% in maintenance and then sacrificed by decapitation. Blood for HPLC determinations (at least 0.5 mL) was collected using heparinized tubes. Plasma obtained after centrifugation (2100 g for 10 min) was stored at −80° C. until the day of analysis.
# Determination of the amount of DA364 in plasma samples was carried out by an HPLC method coupled with a fluorimetric detector previously prompted.
# Plasma samples (S) were prepared by adding 100 μL of acetate buffer and 100 μL of a Methanol Acetonitrile solution (50:50) to 100 μL of diluted plasma. Tubes will be stirred and subsequently centrifuged at 4° C. for 10 minutes at 13000 g. Ten microliters of the clear supernatant will be injected into the HPLC equipment. Appropriate dilution was performed in case of plasma samples too concentrated.
# The HPLC determination was performed by interpolating calibration curves of DA364 in plasma and organs, prepared by assaying calibration standard samples (CAL) (6 concentrations, 3 replicates for each concentration) of the fluorescent agent DA364.
# Blood for HPLC determinations (at least 0.5 mL) was collected in heparinized tubes. Plasma concentration of DA364 was measured by an HPLC method coupled with a fluorimetric detector.
# To evaluate the systemic exposure, Cmax and the area under the plasma DA364 concentration curve as a function of time (AUC) were calculated by non-parametric methods using the computer program WIN-NONLIN 6.3 (WinNonlin 6.3 SCI Software, Lexington, Ky., USA). For the tested dose, a non-compartmental analysis was performed using the average plasma concentrations from 3 animals for each time point. For Cmax and the corresponding tmax the observed values were reported. Area under the plasma concentration-time curve to the last observable plasma concentration (AUC(0 to t)) was calculated from observed data using the logarithmic trapezoidal method. […].
# [4] = Ex vivo fluorescent signal in excised organs (IVIS Spectrum); design: species or system mice; conditions: 48 hours after 1 nmol i.v.
# Protocol: Three weeks after A431 tumor implantation five mice were administered with 1 nmol of DA364 for a total administration volume of 0.2 mL (inj. rate 1 mL/min). In vivo OI acquisitions have been carried out 5 min, 15 min, 30 min, 1 h, 2 h, 3 h, 4 h, 6 h, 24 h and 48 hours after intravenous administration of the fluorescent probe using the IVIS Spectrum optical imaging system (Perkin Elmer). During OI experiments animals were kept under 3-4% Sevofluorane gas anaesthesia (O2 97.0-96.0%). During anaesthesia animals body temperature has been stabilized at about 37° C. using a heated bed.
# Following in vivo OI experiments, 48 hours after probes injection, animals were sacrificed. Tumors, liver, kidneys, heart and spleen were excised for ex vivo fluorescent signal measure on the whole excised tumor or organ.
# The fluorescent signal (expressed as Radiant Efficiency (RE): p/s/(μW/cm^2), where p is the photon count), was then measured on the excised ex vivo samples using the IVIS Spectrum optical imaging system (Perkin Elmer).
# [5] = target: Human Serum Albumin (HSA) (Homo sapiens, UniProt P02768); experiment: In vitro binding assay towards human serum albumin (absorbance at 689 nm)
# Protocol: Final solutions, containing 0.99 mM of the NIR agent and different amount of HSA, were incubated 1 h at room temperature before measurements. The absorbance of each solution was measured against a reference solution of HSA at the same concentration.
# [6] = CD-1(ICR)BR, mouse, plasma, iv, 0.4 umol/kg, 0.4 μmol/kg i.v.
# [7] = CD-1(ICR)BR, mouse, plasma, iv, 0.4 umol/kg, 0.4 μmol/kg i.v., per animal
# Human Serum Albumin (HSA), sequence (P02768 25-609): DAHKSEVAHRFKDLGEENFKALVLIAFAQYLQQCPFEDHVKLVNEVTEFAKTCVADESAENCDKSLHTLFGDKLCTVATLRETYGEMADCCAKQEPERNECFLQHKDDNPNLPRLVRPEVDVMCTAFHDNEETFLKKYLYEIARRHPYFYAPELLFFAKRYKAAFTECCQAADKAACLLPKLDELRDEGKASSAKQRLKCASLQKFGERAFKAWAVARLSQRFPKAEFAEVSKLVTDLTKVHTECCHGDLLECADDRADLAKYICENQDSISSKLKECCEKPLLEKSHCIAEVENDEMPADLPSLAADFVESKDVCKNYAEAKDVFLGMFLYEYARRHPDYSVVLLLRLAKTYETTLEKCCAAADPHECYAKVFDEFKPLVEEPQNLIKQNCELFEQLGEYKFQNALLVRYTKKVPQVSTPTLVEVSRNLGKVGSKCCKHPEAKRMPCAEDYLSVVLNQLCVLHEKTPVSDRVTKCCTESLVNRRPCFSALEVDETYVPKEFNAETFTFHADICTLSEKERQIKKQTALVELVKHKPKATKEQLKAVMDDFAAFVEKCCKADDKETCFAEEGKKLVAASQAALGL
smiles,measurement,setting,value
CC[N+]1=C(/C=C/C=C/C=C2/N(CCCCCC(=O)NC[C@@H]3C[C@@H]4CC[C@H]5C(=O)N[C@@H](CCCNC(=N)N)C(=O)NCC(=O)N[C@@H](CC(=O)O)C(=O)N[C@H]3C(=O)N45)c3ccc4c(S(=O)(=O)O)cc(S(=O)(=O)O)cc4c3C2(C)C)C(C)(C)c2c1ccc1c(S(=O)(=O)[O-])cc(S(=O)(=O)O)cc21 [DA364],extinction coefficient as percent of the theoretical value reported for Cy5.5 dye,[1],83%
same,molar extinction coefficient,[1],208500 M⁻¹ cm⁻¹
same,Φ% (fluorescence quantum yield),[2]; PBS,36.5% and 36.5 (SD 2.37) %
same,Φ% (fluorescence quantum yield),[2]; SERONORM (human-based control serum),57.5% and 57.5 (SD 1.26) %
same,plasma concentration (mean from a triplicate result),[3]; 1440 min after 0.4 μmol/kg i.v.,<LOD
same,plasma concentration (mean from a triplicate result),[3]; 2880 min after 0.4 μmol/kg i.v.,<LOD
same,plasma concentration (mean from a triplicate result),[3]; 10080 min after 0.4 μmol/kg i.v.,<LOD
same,plasma concentration (mean from a triplicate result),[3]; 20160 min after 0.4 μmol/kg i.v.,<LOD
same,AUC(0-inf),[3]; [6],1.28 µM·h
same,Cmax,[3]; [6],1630 nM
same,Tmax,[3]; [6],5 min
same,clearance,[3]; [7],0.15 mL/min
same,Vd,[3]; [7],0.01 L
same,half-life,"[3]; CD-1(ICR)BR, mouse, plasma, iv, 0.4 umol/kg, 0.4 μmol/kg i.v., read-out: half life associated with the terminal elimination phase",64 min
same,clearance,[3]; [6],5 mL/min/kg
same,Vd,[3]; [6],0.329 L/kg
same,level at time molar at 5 min,"[3]; CD-1(ICR)BR, mouse, plasma, iv, 0.4 umol/kg, 5 min after 0.4 μmol/kg i.v., read-out: plasma concentration (mean from a triplicate result)",1630 nM
same,level at time molar at 10 min,"[3]; CD-1(ICR)BR, mouse, plasma, iv, 0.4 umol/kg, 10 min after 0.4 μmol/kg i.v., read-out: plasma concentration (mean from a triplicate result)",1100 nM
same,level at time molar at 20 min,"[3]; CD-1(ICR)BR, mouse, plasma, iv, 0.4 umol/kg, 20 min after 0.4 μmol/kg i.v., read-out: plasma concentration (mean from a triplicate result)",612 nM
same,level at time molar at 0.5 h,"[3]; CD-1(ICR)BR, mouse, plasma, iv, 0.4 umol/kg, 30 min after 0.4 μmol/kg i.v., read-out: plasma concentration (mean from a triplicate result)",518 nM
same,level at time molar at 1 h,"[3]; CD-1(ICR)BR, mouse, plasma, iv, 0.4 umol/kg, 60 min after 0.4 μmol/kg i.v., read-out: plasma concentration (mean from a triplicate result)",278 nM
same,level at time molar at 4 h,"[3]; CD-1(ICR)BR, mouse, plasma, iv, 0.4 umol/kg, 240 min after 0.4 μmol/kg i.v., read-out: plasma concentration (mean from a triplicate result)",51 nM
same,Fluorescence Signal (Radiant Efficiency),[4]; excised heart ex vivo,4.61E+07 p/s/(μW/cm^2)
same,Fluorescence Signal (Radiant Efficiency),[4]; excised kidney ex vivo,3.55E+08 p/s/(μW/cm^2)
same,Fluorescence Signal (Radiant Efficiency),[4]; excised liver ex vivo,4.04E+08 p/s/(μW/cm^2)
same,Fluorescence Signal (Radiant Efficiency),[4]; excised spleen ex vivo,5.79E+07 p/s/(μW/cm^2)
same,pKd,[5],4.46
same,association constant with HSA (ka),"[5]; PBS, 1 h at room temperature",28670 ± 1140 M⁻¹
